Reference: PMC4149788 (The Febs Journal, 2014)

Molecular target: GST-HAUSP (human, UniProt Q93009 1-1102)
Assay: pull-down

Sequence of GST-HAUSP (Q93009 whole entry): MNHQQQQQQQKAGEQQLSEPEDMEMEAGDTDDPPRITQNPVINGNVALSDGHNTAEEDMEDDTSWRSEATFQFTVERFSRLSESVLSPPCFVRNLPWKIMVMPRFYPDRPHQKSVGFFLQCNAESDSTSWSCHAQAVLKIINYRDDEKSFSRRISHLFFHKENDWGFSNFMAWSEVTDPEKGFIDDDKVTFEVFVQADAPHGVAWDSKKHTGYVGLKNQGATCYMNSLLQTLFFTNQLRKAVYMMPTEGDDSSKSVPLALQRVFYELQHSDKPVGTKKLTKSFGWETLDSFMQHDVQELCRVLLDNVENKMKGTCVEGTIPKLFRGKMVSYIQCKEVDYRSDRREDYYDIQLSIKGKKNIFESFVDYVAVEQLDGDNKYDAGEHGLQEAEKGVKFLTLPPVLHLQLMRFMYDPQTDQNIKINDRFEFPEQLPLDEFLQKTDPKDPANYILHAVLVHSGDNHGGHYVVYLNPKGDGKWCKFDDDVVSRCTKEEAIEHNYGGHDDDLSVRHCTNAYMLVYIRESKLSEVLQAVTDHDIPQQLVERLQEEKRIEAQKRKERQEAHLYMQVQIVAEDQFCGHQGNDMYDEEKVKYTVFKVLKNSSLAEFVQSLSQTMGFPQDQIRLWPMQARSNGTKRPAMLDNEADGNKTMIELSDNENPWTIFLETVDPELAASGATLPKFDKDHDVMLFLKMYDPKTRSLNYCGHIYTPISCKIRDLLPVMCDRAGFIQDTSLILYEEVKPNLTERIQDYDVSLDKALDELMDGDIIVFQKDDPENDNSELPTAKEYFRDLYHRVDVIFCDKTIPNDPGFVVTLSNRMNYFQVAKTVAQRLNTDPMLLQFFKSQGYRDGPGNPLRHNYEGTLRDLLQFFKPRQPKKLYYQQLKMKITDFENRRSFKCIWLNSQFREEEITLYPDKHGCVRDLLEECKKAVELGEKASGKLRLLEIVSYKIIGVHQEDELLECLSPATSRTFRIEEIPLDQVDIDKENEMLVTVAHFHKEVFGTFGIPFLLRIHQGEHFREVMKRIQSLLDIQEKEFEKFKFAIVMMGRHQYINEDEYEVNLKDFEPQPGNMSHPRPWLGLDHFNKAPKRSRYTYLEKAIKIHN

B1: Myc/His-Rb (Rb in pcDNA3.1-Myc/His B(-)) (natural protein, human, UniProt P06400 1-928, looked up)
chain: MPPKTPRKTAATAAAAAAEPPAPPPPPPPEEDPEQDSGPEDLPLVRLEFEETEEPDFTALCQKLKIPDHVRERAWLTWEKVSSVDGVLGGYIQKKKELWGICIFIAAVDLDEMSFTFTELQKNIEISVHKFFNLLKEIDTSTKVDNAMSRLLKKYDVLFALFSKLERTCELIYLTQPSSSISTEINSALVLKVSWITFLLAKGEVLQMEDDLVISFQLMLCVLDYFIKLSPPMLLKEPYKTAVIPINGSPRTPRRGQNRSARIAKQLENDTRIIEVLCKEHECNIDEVKNVYFKNFIPFMNSLGLVTSNGLPEVENLSKRYEEIYLKNKDLDARLFLDHDKTLQTDSIDSFETQRTPRKSNLDEEVNVIPPHTPVRTVMNTIQQLMMILNSASDQPSENLISYFNNCTVNPKESILKRVKDIGYIFKEKFAKAVGQGCVEIGSQRYKLGVRLYYRVMESMLKSEEERLSIQNFSKLLNDNIFHMSLLACALEVVMATYSRSTSQNLDSGTDLSFPWILNVLNLKAFDFYKVIESFIKAEGNLTREMIKHLERCEHRIMESLAWLSDSPLFDLIKQSKDREGPTDHLESACPLNLPLQNNHTAADMYLSPVRSPKKKGSTTRVNSTANAETQATSAFQTQKPLKSTSLSLFYKKVYRLAYLRLNTLCERLLSEHPELEHIIWTLFQHTLQNEYELMRDRHLDQIMMCSMYGICKVKNIDLKFKIIVTAYKDLPHAVQETFKRVLIKEEEYDSIIVFYNSVFMQRLKTNILQYASTRPPTLSPIPHIPRSPYKFPSSPLRIPGGNIYISPLKSPYKISEGLPTPTKMTPRSRILVSIGESFGTSEKFQKINQMVCNSDRVLKRSAEGSNPPKPLKKLRFDIEGSDEADGSKHLPGESKFQQKLAEMTSTRTRMQKQKMNDSMDTSNKEEK
  binding result: binds
